# Assay results published in paper PMC4476739 (PLoS ONE, 2015).
# B1: D25 antigen binding fragment (Fab) (Fab, V domains shown)
# VH: QVQLVQSGAEVKKPGSSVMVSCQASGGPLRNYIINWLRQAPGQGPEWMGGIIPVLGTVHYAPKFQGRVTITADESTDTAYIHLISLRSEDTAMYYCATETALVVSTTYLPHYFDNWGQGTLVTVSS
# VL: DIQMTQSPSSLSAAVGDRVTITCQASQDIVNYLNWYQQKPGKAPKLLIYVASNLETGVPSRFSGSGSGTDFSLTISSLQPEDVATYYCQQYDNLPLTFGGGTKVEIK
# notes: Fab in solution in the Octet assays; also called site Ø-specific antibody D25
# Columns and labels:
# Assay in all cases: BLI; fortéBio Octet Red384; RSV F variant captured on motavizumab IgG loaded on anti-human Fc probes; Fab in solution 0.007 to 0.5 μM; 30°C; PBS + 1% BSA; 1:1 fit
# Settings in all cases: both partners purified
# [1] = target: T1, DS-Cav1 2-AB, foldon removed (Human respiratory syncytial virus A, …, S155C | S290C | S190F | V207L | L512C (stands in the printed letters) | L513C …)
# T1 construct: RSV F glycoprotein, F1 subunit from its N-terminus to residue 511, with the DS (S155C-S290C) and Cav1 (S190F, V207L) mutations; RSV F α10 helix from residue 512 with rings A and B; Gly-Gly linker and LVPR of the thrombin site, left after cleavage; trimeric species purified after foldon removal; also called Rings AB; rings AB without foldon; source: Expi293F, transient transfection, purified from …
# [2] = target: T2, DS-Cav1 3-BCD, foldon removed (Human respiratory syncytial virus A, …, S155C | S290C | S190F | V207L | G519C (stands in the printed letters) | K520C …)
# T2 construct: RSV F glycoprotein, F1 subunit from its N-terminus to residue 511, with the DS (S155C-S290C) and Cav1 (S190F, V207L) mutations; RSV F α10 helix from residue 512 with rings B and C; added stretch that duplicates part of the coiled-coil; ring D at 533C-534C; Gly-Gly linker and LVPR of the thrombin site, left after cleavage; trimeric species purified after foldon removal; also called rings BCD …
# [3] = target: T3, DS-Cav1 4-ABCD, foldon removed (Human respiratory syncytial virus A, …, S155C | S290C | S190F | V207L | L512C (stands in the printed letters) | L513C …)
# T3 construct: RSV F glycoprotein, F1 subunit from its N-terminus to residue 511, with the DS (S155C-S290C) and Cav1 (S190F, V207L) mutations; RSV F α10 helix from residue 512 with rings A, B and C; added stretch that duplicates part of the coiled-coil; ring D at 533C-534C; Gly-Gly linker and LVPR of the thrombin site, left after cleavage; trimeric species purified after foldon removal; also called Rings ABCD; …
# [4] = target: T4, DS-Cav1 4-BCDE, foldon removed (Human respiratory syncytial virus A, …, S155C | S290C | S190F | V207L | G519C (stands in the printed letters) | K520C …)
# T4 construct: RSV F glycoprotein, F1 subunit from its N-terminus to residue 511, with the DS (S155C-S290C) and Cav1 (S190F, V207L) mutations; RSV F α10 helix from residue 512 with rings B and C; added stretch based on the α10 heptad repeat; ring D at 533C-534C and ring E at 540C-541C; Gly-Gly linker and LVPR of the thrombin site, left after cleavage; trimeric species purified after foldon removal; also called …
# [5] = target: T5, DS-Cav1 5-ABCDE, foldon removed (Human respiratory syncytial virus A, …, S155C | S290C | S190F | V207L | L512C (stands in the printed letters) | L513C …)
# T5 construct: RSV F glycoprotein, F1 subunit from its N-terminus to residue 511, with the DS (S155C-S290C) and Cav1 (S190F, V207L) mutations; RSV F α10 helix from residue 512 with rings A, B and C; added stretch based on the α10 heptad repeat; ring D at 533C-534C and ring E at 540C-541C; Gly-Gly linker and LVPR of the thrombin site, left after cleavage; trimeric species purified after foldon removal; also …
binder,measurement,setting,value
B1,Kd,[1],0.21 nM
same,Kd,[2],0.38 nM
same,Kd,[3],0.32 nM
same,Kd,[4],0.33 nM
same,Kd,[5],0.47 nM
